Measurements reported in publication PMC8555655.

Molecular target: PlyCB R66E mutant (streptococcal bacteriophage (C1)) (UniProt Q7Y3F3)
Test: SEC

Substance: PlyCB R66E mutant (from UniProt Q7Y3F3 1-72) (natural protein)
- stoichiometry N: 8
